Experimental findings from publication PMC11098746 (2024) are described below.

Common to all, as to test: AVEXIS screen signal:noise (double-corrected)
One test deals with T1, ADP320.
T1 chain: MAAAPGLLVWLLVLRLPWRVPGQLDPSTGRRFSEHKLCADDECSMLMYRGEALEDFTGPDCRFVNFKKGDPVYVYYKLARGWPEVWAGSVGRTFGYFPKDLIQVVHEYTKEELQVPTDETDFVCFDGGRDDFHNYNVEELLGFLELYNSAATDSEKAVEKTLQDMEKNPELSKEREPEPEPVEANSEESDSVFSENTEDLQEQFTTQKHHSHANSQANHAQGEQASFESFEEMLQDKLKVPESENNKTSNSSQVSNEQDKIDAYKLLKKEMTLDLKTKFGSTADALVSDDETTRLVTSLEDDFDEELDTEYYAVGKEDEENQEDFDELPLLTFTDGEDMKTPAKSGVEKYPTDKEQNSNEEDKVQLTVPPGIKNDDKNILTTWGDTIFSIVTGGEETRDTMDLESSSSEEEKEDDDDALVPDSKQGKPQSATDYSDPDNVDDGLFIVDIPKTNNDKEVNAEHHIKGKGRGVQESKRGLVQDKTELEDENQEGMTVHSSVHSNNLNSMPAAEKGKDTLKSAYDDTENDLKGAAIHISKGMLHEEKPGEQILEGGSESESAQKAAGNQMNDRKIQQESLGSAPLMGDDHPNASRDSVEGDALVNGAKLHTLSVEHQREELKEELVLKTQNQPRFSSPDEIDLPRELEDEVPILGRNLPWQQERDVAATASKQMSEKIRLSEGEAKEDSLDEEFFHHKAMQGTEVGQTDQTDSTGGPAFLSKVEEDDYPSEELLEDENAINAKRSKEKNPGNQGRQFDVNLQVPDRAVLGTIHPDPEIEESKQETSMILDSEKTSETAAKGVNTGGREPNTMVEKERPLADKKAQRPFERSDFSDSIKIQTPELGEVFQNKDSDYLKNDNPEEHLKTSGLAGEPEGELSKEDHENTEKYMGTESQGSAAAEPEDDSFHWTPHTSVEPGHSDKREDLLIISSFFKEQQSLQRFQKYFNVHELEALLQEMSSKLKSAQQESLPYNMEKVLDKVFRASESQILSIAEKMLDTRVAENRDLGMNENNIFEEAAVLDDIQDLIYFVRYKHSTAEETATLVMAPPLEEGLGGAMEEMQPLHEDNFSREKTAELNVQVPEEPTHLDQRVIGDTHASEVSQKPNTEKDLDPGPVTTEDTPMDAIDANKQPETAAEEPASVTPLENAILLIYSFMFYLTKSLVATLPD

The next test deals with ADP326.
The target of another test is T2, ADP375.
T2 chain: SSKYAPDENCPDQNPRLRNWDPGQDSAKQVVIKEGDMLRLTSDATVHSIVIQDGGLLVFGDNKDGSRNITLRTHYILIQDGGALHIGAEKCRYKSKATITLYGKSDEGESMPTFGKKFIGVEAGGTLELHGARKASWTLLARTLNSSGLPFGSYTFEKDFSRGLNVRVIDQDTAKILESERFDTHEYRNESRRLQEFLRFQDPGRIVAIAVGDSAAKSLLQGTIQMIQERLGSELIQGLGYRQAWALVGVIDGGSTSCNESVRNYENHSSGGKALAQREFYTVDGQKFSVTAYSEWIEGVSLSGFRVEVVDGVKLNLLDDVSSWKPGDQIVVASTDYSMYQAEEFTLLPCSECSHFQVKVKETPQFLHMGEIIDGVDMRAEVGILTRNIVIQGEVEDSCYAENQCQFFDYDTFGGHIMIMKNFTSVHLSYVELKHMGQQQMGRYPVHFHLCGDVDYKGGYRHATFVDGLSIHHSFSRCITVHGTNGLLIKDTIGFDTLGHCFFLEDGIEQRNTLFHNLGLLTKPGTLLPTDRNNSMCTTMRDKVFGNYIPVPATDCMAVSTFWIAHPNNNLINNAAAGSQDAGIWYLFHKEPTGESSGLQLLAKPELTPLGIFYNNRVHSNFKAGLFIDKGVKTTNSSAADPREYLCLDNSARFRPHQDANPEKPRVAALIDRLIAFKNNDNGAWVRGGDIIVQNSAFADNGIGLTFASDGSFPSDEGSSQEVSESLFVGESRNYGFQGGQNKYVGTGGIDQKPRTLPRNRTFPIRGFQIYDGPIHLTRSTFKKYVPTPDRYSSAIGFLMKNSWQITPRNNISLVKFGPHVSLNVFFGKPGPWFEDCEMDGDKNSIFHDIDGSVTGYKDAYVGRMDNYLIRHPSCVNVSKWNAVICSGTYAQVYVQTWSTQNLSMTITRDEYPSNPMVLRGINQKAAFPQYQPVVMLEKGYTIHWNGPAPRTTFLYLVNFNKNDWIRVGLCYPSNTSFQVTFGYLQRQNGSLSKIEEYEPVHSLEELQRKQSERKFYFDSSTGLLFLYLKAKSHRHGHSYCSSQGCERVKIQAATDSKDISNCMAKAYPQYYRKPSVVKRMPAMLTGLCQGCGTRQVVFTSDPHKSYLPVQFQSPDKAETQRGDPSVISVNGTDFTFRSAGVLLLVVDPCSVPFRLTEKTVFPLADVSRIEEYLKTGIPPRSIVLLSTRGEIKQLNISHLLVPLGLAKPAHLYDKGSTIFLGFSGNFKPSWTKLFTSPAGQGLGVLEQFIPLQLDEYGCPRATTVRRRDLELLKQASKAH

The next test addresses T3, ADP389.
T3 chain: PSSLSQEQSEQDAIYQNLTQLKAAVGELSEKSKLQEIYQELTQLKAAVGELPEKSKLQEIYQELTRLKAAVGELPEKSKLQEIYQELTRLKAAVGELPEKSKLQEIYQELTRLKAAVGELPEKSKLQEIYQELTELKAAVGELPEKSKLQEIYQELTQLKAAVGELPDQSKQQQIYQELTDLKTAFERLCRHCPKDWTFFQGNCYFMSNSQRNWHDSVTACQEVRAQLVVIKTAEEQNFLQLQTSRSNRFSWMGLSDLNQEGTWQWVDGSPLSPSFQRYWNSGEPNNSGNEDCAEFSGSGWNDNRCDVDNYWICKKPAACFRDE

Another test concerns the target T4, ADP334.
T4 chain: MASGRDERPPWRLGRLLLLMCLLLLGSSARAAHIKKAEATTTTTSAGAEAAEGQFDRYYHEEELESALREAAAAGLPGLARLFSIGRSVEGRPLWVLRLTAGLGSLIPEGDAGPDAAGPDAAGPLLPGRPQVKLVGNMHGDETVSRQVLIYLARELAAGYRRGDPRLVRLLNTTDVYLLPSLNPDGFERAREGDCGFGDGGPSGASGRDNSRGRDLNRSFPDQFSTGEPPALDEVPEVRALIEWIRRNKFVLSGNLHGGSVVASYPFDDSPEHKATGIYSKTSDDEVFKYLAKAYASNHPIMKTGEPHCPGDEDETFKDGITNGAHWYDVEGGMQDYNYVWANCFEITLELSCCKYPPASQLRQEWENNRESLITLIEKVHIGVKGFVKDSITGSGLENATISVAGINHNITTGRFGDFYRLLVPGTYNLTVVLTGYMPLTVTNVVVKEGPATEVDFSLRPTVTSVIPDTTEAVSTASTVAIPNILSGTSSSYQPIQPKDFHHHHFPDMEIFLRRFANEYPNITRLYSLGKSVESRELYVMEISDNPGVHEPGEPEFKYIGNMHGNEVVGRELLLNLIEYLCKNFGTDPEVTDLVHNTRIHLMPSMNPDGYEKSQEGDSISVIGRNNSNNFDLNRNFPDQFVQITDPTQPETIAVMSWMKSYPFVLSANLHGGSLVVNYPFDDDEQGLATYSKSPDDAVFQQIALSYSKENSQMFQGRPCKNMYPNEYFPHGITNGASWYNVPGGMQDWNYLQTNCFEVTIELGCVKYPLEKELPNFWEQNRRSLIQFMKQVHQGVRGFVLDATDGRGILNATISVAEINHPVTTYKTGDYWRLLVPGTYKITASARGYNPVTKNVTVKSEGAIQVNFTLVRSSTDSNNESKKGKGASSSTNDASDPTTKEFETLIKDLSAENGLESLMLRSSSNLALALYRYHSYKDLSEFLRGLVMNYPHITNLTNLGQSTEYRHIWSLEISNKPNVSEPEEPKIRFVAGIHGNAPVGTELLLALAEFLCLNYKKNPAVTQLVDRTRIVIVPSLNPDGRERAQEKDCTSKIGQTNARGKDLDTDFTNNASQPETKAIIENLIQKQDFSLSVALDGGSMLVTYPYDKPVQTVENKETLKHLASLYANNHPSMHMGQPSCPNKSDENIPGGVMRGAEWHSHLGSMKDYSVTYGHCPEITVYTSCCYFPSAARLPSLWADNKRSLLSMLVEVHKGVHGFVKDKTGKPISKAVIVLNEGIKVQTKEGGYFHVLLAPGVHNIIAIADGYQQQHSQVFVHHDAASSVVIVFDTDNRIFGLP

B1: ADP193 (protein)
chain: GEEKLTKFDPVMIKEGELFGEVSYDCEYSGFLEIENDDILYYCFFVGEDDHNGLLLRKFHMDDMVWGIPMEVLITRKKINLYILTVDYILSKLILIYSFDEKIRITVFNNYMEESVMSEKISINYEILYKANMISYITYFYKNKKSLCVCGMNRNENILCTFSFDYGLTMKDDHTIEFFLKKKIPLGHYKMQVTFKETEVYFNLYNDLNEANFYELKCVKKQDEYICDIMNKIRETQEYNYKRYTYPSSEHNKYYNDHHNKQPQGKQGQQGGAPLPNLGEEENNFIYKHIVRNKYFQMIVFQKDQKCYLAWSFNSLNINDEITKEISSVPCSNVASYYRQERLIVTLKKNQLGSRNHFFLIYEKLTEKGVGCEFGVGGSLYVTKTFMNNACDMDINNMNVATTNYDEINFALIIPLSFQLNYATCFIWEENVDNNEERSSLYYLEEYTNEKEDIKVYTFYFYKYILIYKNFKKSTCTFESKNNEKLYISFRGDTYYKEYNCNILLDSCDFFLHTQSKINIAYDDDVWQVSEELYDGFVMYNGAYVSLYDVLSRSNAHGLIYIDGKENNAAINLNNIKNNNNNNNNNNNNNNAANNNNIANNANSNNAFGEHEKVITIIIPYGIPSTRTIKIEFLNKQNNEEKRWAYLRLQKNEYIMKKVIGINSADIFDLSYKYYKYNQEKIKFILNDFSETTYLGFICQTKEEIKKSLCTISLVDHSHKNMAINNLFKTNNHILPFLYDQSPPRKIQPYNQIISEFRFVLFKNFHLFLQENKINYILLKCMCSSSSSYINTQKNIELSYLITNEQVSHDFIHTPGILIRPRTNIAHNDYQKNNKGNHKGNNKANNKANDKDSNNNANNNANKNGNNHNDNNNNNQNKDIDINSNYAIHNNNEKVKRTKKKINDAPYDKQDEELPSYDFNDLLHEKKNGASVFDFNFVLFLFICITFF
modifications: bait human Fc-tagged dimer; N-glycosylation sequons mutated in Plasmodium baits
With B1, the figures for the binding score in the test with ADP320, with ADP326 and with ADP375 were 7.53, 9.3 and 8.14, respectively.

B2: ADP172 (protein)
chain: YLEQIKNGISGHYTEDHNIKNNNCISFSDYERSIKNFAISSHAENNYDNIINEYKKIKDINNNINILSSVHRKGRILYDSFLEINKLENDKKEKHEKEDEYEDNDESFLETEEYEDNEDEKYNKDEDDYAESFIETDEYEDNEDDKYNKDEDDYSESFIETDEYDDNEEEQYNKDEDDYTDSFIETDHYENNDDKNEEEEEYNDQDNDYGYNFLETDEYDDSEEYDYDDKEYGESFLEKEEGEEMKDEEMKDEEMKDVEMKDEEMKDEEMKYDEMKNEEMKYDEMKDEVMKDEEMKDEVMKDEEMKDEQMKYEEFKNEESKNEESKNEESKNEESKNEEFKNEESKNEEFKNEEFKNEDMSYDEYMGYKKKEEDESYNTFNGAKKNNAANSFLEKDLQGDSDDELHSTFYSKNVDKENYDDKNIFYGYSDNDDESFLETDSYEEYEDEDKDVEDEYEESFLQNDEKKMVFYDLYKPEENEAYYEKKQKKEEKEEKEEKEQSLNKQNDMEDQEDNEEYKFEEENKEDLLDVQQDEELPSEGKQKVKGKSFDNEHLNEIQNVADVHAFIQKDMKYLDDLIDEEQTIKDAVKKSAYKGNKKLGNNKKSQMILEEEPEENFEEDADEELNKLMEQEKNIVDKEIKNSKANKANKKLQFNNANKQNKMYMKNEYNNKAKNNKNNKFEQQNYDESYMDDDYEQNEEFNDNNQAEDMKETNELDKINDELLTDQGPNEDTLLENNNKIFDNKFVAHKKREKSISPHSYQKVSTKVQNKEDMENKEEKQLINDEAAMTAEELVELENTEDVNTPTMVETEEIDSDENGNKAS
modifications: bait human Fc-tagged dimer; N-glycosylation sequons mutated in Plasmodium baits
With B2, the binding score with ADP389 was determined as 7.86; with ADP334, 13.1.
